Laboratory results from patent US20230056252A1 (Gilead, published 2023).
Read-outs that look alike come from different tables or passages of the source.

Columns and labels:
[1] = target: T1, biotinylated CD3 epsilon:delta heterodimer protein (Amsbio AMS.CDD-H52WO) (Homo sapiens (Human), UniProt P07766 23-126; P04234 22-105); assay: BLI (Octet), CD3 on SA sensor, Fab analyte
T1 construct: also called CD3 heterodimer
Description: (§1) The CD3 binding kinetics of the purified huSP34 Fabs were determined using OctetRed384 (Pall ForteBio, CA) biolayer interferometry (BLI). […] Streptavidin (SA) coated biosensors tips (Pall ForteBio, CA) were used to capture biotinylated CD3 epsilon: delta heterodimer and typical immobilization levels captured on the SA sensors were 1 nm which approximately translates to 300 ng/ml of captured protein. For kinetic measurements biosensors were first pre-wetted with assay buffer for 10 minutes to remove protective sucrose coating followed by the recommended regeneration conditions for standardization of the biosensor surface for the experiment. In order to load the biosensors with antigen, 300 ng/ml of biotinylated CD3 epsilon: delta heterodimer protein (Amsbio AMS.CDD-H52WO) was immobilized on the SA sensor for 900 seconds. The CD3 loaded biosensors were then blocked with 20 ug/ml biocytin (sigma) for 200 seconds and then dipped into assay buffer containing wells for 200 seconds to remove any non-specific protein or unbound CD3 heterodimer.
(§2) CD3 loaded and biocytin blocked biosensors were then transferred into fresh assay buffer for 200 seconds to collect a baseline read. Kinetic measurements for anti-CD3 Fab and bispecific antibody binding were performed by dipping the CD3-coated biosensors into wells containing multiple concentrations of Fab or Ab (0-300 nM) for 100 seconds followed by a 300 second dissociation time by transferring the biosensors into assay buffer containing wells. The CD3 loaded sensors were then regenerated for the next kinetic measurement. Biosensors were generated by removing bound Fabs or Ab from immobilized CD3 on SA biosensors. Regeneration conditions used consisted of 3 cycles of 5 seconds of dipping the biosensors in Regeneration Buffer (10 mM Glycine HCl pH 1.5) followed by Assay Buffer (10 mM sodium phosphate pH 7.4, 140 mM Sodium Chloride, 0.005% Tween20 with 0.2% BSA).

[2] = target: T1, biotinylated CD3 epsilon:delta …; assay: BLI (Octet), CD3 on SA sensor, Fab analyte; remark: listed apart in the source
Description: as §1, §2

[3] = target: T2, CD3 expressed on cell-surface of primary human T cells (human, UniProt P07766 23-207; P04234 22-171); assay: flow cytometry competition vs murine SP34-AF488 on human T cells, n = 1
T2 construct: also called cell-surface CD3; human CD3
Description: Binding of humanized SP34 Fab variants to CD3 expressed on cell-surface of primary human T cells was evaluated in a flow cytometry-based competition assay.

B1: huSP34.3.8 Fab-HF (Fab, V domains shown)
VH: EVQLVESGGGLVQPGGSLRLSCAASGFTFNTYAMNWVRQAPGKGLEWVGRIRSKYNNYATYYADSVKGRFTISRDDSKNSLYLQMNSLRTEDTAVYYCVRHGNFGHSYVSWFAYWGQGTLVTVSS
VL: QAVVTQEPSLTVSPGGTVTLTCGSSTGAVTTGHYANWVQQKPGQAPRGLIGGTNKRAPGVPARFSGSLLGGKAALTISGAQPEDEAEYYCALWYSNRWVFGGGTKLTVL
notes: also called HC3+LC8
[1]
  Kd: 4.4 nM
  koff: 0.00113 s⁻¹
  kon: 255000 M⁻¹ s⁻¹
[2]
  Kd: 1.9 nM
  koff: 0.00024 s⁻¹
  kon: 131000 M⁻¹ s⁻¹

B2: huSP34.13.8 Fab-HF (Fab, V domains shown)
VH: EVQLVESGGGLVQPGGSLRLSCAASGFTFSTYAMNWVRQAPGKGLEWVGRIRSKYNNYATYYAASVKGRFTISRDDSKNTLYLQMNSLRTEDTAVYYCVRHGNFGHSYVSWFAYWGQGTLVTVSS
VL: QAVVTQEPSLTVSPGGTVTLTCGSSTGAVTTGHYANWVQQKPGQAPRGLIGGTNKRAPGVPARFSGSLLGGKAALTISGAQPEDEAEYYCALWYSNRWVFGGGTKLTVL
notes: also called HC13+LC8
[1]
  Kd: 2.5 nM
  koff: 0.00216 s⁻¹
  kon: 933000 M⁻¹ s⁻¹

B3: huSP34.13.10 Fab-HF (Fab, V domains shown)
VH: EVQLVESGGGLVQPGGSLRLSCAASGFTFSTYAMNWVRQAPGKGLEWVGRIRSKYNNYATYYAASVKGRFTISRDDSKNTLYLQMNSLRTEDTAVYYCVRHGNFGHSYVSWFAYWGQGTLVTVSS
VL: QAVVTQPPSLTVSPGGTVTLTCGSSTGAVTTGHYANWVQQKPGQAPRGLIGGTNKRAPGVPARFSGSLSGGKAALTISGAQPEDEAEYYCALWYSNRWVFGGGTKLTVL
notes: also called HC13+LC10
[1]
  Kd: 1.7 nM
  koff: 0.00204 s⁻¹
  kon: 1.36e+06 M⁻¹ s⁻¹

B4: huSP34.13.9 Fab-HF (Fab, V domains shown)
VH: EVQLVESGGGLVQPGGSLRLSCAASGFTFSTYAMNWVRQAPGKGLEWVGRIRSKYNNYATYYAASVKGRFTISRDDSKNTLYLQMNSLRTEDTAVYYCVRHGNFGHSYVSWFAYWGQGTLVTVSS
VL: QAVVTQPPSLTVSPGGTVTLTCGSSTGAVTTGHYANWVQQKPGQAPRGLIGGTNKRAPGVPARFSGSLSGGKAALTISGAQPEDEAEYYCALWYSNLWVFGGGTKLTVL
notes: also called HC13+LC9
[1]
  Kd: 2.7 nM
  koff: 0.00361 s⁻¹
  kon: 1.38e+06 M⁻¹ s⁻¹

B5: huSP34.3.10 Fab-HF (Fab, V domains shown)
VH: EVQLVESGGGLVQPGGSLRLSCAASGFTFNTYAMNWVRQAPGKGLEWVGRIRSKYNNYATYYADSVKGRFTISRDDSKNSLYLQMNSLRTEDTAVYYCVRHGNFGHSYVSWFAYWGQGTLVTVSS
VL: QAVVTQPPSLTVSPGGTVTLTCGSSTGAVTTGHYANWVQQKPGQAPRGLIGGTNKRAPGVPARFSGSLSGGKAALTISGAQPEDEAEYYCALWYSNRWVFGGGTKLTVL
notes: also called HC3+LC10
[1]
  Kd: 2 nM
  koff: 0.00137 s⁻¹
  kon: 683000 M⁻¹ s⁻¹
[2]
  Kd: 2.3 nM
  koff: 0.000235 s⁻¹
  kon: 142000 M⁻¹ s⁻¹

B6: huSP34.6.1 Fab-HF (Fab, V domains shown)
VH: EVQLVESGGGLVQPGGSLRLSCAASGFTFSTYAMNWVRQAPGKGLEWVGRIRSKYNNYATYYADSVKGRFTISRDNSKNTLYLQMNSLRAEDTAMYYCVRHGNFGNSYVSWFAVWGQGTLVTVSS
VL: QAVVTQEPSLTVSPGGTVTLTCRSSTGAVTTSNYANWVQQKPGQAPRGLIGGTNKRAPWTPARFSGSLIGDKAALTLSGAQPEDEAEYYCALWYSNLWVFGGGTKLTVL
[3]
  IC50: > 20 µg/mL

B7: mSP34 Fab-HF v2 (Fab, V domains shown)
VH: EVKLLESGGGLVQPKGSLKLSCAASGFTFNTYAMNWVRQAPGKGLEWVARIRSKYNNYATYYADSVKDRFTISRDDSQSILYLQMNNLKTEDTAMYYCVRHGNFGNSYVSWFAYWGQGTLVTVSA
VL: QAVVTQESALTTSPGETVTLTCRSSTGAVTTSNYANWVQEKPDHLFTGLIGGTNKRAPGVPARFSGSLIGDKAALTITGAQTEDEAIYFCALWYSNLWVFGGGTKLTVLG
[1]
  Kd: 5.2 nM
  koff: 0.00266 s⁻¹
  kon: 532000 M⁻¹ s⁻¹
